According to US10562947B2, “Compositions and methods for preventing or treating diseases, conditions or processes characterized by aberrant fibroblast proliferation and extracellular matrix deposition” (MOERAE MATRIX, INC., priority 2011, dated 2020):

Key:
Experiment in all cases: Kinase Profiling Assay
Type in all cases: biochemical
Conditions in all cases: 100 μM peptide
MLK1(h) = MLK1(h) (Homo sapiens, UniProt P80192)
In short: (§1)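 All 266 human kinases of a profiling service were assayed in duplicate to establish whether MK2 inhibitory peptides act specifically.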

PKCβI(h) = PKCβI(h) (Homo sapiens, UniProt P05771)
Sequence of PKCβI(h) (P05771 whole entry): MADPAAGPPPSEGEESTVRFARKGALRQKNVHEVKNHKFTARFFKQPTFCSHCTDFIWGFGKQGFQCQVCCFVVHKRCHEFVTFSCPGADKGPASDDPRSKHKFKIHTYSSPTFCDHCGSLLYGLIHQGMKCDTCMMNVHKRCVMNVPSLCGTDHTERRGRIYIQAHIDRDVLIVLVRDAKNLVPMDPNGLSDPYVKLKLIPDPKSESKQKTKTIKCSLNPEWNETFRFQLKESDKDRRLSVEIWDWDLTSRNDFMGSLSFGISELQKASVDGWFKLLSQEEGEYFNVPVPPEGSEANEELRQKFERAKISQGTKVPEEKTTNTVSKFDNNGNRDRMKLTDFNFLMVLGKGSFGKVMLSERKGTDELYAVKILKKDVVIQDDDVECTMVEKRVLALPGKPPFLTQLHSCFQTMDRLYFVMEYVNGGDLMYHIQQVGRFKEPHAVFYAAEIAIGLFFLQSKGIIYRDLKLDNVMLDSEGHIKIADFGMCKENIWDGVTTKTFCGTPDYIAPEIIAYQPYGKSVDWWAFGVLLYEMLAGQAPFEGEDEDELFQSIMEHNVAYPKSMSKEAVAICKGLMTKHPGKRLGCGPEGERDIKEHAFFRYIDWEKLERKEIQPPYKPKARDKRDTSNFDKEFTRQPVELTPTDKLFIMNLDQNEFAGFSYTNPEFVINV
In short: as §1

Met(Y1248C)(h) = Met(Y1248C)(h) (Homo sapiens, UniProt P08581, Y1230C)
In short: as §1

ASK1(h) = biological target: T1, ASK1(h) (Homo sapiens, UniProt Q99683)
T1 sequence (Q99683 1-1374): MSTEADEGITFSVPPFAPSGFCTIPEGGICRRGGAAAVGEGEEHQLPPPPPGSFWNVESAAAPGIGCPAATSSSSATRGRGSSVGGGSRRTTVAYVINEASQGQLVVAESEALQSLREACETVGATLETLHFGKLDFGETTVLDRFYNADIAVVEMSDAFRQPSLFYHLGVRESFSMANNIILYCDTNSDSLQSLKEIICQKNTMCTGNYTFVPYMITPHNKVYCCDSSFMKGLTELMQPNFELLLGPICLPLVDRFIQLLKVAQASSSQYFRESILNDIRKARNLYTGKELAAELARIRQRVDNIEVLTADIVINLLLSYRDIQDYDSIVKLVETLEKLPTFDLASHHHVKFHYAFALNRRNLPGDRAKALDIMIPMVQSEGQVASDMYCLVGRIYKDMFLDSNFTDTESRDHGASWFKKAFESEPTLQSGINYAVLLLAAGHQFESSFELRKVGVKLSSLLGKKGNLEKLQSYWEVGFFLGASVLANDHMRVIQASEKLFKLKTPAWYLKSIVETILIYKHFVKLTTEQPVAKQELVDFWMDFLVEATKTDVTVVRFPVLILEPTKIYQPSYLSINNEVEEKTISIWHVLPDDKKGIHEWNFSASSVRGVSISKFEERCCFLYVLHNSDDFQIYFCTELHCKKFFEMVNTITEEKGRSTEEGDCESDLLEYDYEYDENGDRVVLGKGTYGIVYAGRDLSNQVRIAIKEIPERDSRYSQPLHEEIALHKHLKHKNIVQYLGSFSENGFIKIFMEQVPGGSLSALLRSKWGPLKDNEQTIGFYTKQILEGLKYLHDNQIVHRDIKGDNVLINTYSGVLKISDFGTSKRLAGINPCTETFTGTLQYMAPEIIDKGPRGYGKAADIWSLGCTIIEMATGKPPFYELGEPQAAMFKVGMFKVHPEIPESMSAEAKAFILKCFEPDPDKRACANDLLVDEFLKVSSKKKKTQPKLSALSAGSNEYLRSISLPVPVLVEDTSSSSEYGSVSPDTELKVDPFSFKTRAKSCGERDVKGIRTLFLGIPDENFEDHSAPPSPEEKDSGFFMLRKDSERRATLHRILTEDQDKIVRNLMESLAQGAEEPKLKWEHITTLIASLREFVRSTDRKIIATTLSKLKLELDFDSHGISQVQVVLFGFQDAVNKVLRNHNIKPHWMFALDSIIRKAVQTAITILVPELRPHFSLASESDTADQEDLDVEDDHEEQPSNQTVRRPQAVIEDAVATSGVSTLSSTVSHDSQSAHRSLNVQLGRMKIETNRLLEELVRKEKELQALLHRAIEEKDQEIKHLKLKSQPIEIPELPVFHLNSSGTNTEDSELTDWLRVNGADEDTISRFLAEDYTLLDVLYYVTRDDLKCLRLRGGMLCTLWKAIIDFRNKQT
In short: as §1

PDK1(h) = biological target: T2, PDK1(h) (Homo sapiens, UniProt O15530)
T2 sequence (O15530 1-556): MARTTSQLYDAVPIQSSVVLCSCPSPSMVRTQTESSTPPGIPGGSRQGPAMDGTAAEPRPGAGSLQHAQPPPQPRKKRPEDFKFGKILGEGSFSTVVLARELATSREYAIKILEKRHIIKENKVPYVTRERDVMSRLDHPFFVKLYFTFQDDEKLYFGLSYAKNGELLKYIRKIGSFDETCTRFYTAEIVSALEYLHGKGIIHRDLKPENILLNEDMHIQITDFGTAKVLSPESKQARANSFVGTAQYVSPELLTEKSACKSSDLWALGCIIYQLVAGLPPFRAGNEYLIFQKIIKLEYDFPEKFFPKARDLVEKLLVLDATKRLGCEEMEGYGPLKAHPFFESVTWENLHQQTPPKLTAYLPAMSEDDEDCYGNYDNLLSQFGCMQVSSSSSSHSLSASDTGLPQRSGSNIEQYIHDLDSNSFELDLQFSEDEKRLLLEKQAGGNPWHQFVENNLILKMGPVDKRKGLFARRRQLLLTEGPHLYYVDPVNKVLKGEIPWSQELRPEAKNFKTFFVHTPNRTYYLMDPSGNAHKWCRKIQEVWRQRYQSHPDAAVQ
In short: as §1

Src(T341M)(h) = Src(T341M)(h) (Homo sapiens, UniProt P12931, T341M)
In short: as §1

SGK(h) = biological target: T3, SGK(h) (Homo sapiens, UniProt O00141)
T3 sequence (O00141 1-431): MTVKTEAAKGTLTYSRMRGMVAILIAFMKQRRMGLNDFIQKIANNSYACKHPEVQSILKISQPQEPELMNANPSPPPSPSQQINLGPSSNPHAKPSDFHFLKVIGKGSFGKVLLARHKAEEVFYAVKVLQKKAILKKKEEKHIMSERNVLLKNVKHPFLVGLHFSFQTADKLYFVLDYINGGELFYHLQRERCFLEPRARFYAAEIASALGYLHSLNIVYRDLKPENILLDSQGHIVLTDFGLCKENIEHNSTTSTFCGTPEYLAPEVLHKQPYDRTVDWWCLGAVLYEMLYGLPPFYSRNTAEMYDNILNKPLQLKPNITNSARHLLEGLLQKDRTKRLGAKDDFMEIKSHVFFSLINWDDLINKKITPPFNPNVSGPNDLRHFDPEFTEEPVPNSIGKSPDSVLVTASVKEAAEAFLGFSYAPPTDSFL
In short: as §1

Sequence of MLK1(h) (P80192 whole entry): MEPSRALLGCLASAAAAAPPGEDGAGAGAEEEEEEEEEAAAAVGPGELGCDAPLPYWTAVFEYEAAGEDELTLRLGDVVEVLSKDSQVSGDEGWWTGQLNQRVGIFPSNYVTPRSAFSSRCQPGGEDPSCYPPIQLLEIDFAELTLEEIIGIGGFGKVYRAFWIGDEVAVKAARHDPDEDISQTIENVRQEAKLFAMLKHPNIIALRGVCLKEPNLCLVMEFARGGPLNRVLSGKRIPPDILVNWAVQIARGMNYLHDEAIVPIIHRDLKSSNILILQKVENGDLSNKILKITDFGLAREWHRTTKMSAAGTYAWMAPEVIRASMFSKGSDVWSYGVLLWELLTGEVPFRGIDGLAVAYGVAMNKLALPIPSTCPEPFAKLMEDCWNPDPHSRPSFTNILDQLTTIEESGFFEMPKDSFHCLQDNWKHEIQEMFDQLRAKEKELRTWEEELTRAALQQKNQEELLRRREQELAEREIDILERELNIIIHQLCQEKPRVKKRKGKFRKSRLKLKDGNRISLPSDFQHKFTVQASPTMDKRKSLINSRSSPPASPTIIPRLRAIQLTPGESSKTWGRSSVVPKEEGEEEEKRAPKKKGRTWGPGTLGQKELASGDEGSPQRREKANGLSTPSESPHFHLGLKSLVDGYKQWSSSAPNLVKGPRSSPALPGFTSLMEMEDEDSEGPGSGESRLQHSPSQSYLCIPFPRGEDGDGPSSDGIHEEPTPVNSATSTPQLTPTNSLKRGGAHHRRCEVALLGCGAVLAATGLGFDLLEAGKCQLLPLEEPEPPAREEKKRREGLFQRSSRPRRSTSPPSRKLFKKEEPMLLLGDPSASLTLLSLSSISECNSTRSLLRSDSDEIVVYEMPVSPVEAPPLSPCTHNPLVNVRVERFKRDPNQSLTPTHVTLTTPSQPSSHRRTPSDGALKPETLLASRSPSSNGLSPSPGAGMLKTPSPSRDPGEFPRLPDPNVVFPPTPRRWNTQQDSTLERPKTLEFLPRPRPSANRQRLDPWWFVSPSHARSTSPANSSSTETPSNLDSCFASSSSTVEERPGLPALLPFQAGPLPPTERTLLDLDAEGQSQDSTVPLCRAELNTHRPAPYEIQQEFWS

Row | Sequence | MLK1(h) % activity (MLK1(h)) [%] | PKCβI(h) % activity (PKCβI(h)) [%] | Met(Y1248C)(h) % activity (Met(Y1248C)(h)) [%] | ASK1(h) % activity (ASK1(h)) [%] | PDK1(h) % activity (PDK1(h)) [%] | Src(T341M)(h) % activity (Src(T341M)(h)) [%] | SGK(h) % activity (SGK(h)) [%]
1 | FAKLAARLYRKALARQLGVAA [MMI-0300] | 40 | 78 | 84 | 80 | 135 | 70 | 48
2 | KAFAKLAARLYRKALARQLGVAA [MMI-0400] | 33 | 78 | 36 | 69 | 159 | 76 | 54
3 | HRRIKAWLKKIKALARQLGVAA (Mammalian) [MMI-0500] | 43 | 1 | 73 | −4 | 178 | 59 | 2
4 | YARAAARQARAKALNRQLGVA (Mammalian) [MMI-0200] | 84 | 98 | 141 | 101 | 143 | 56 | 
